Changes are numbered by the printed parent chain.
T1: GST-OsbZIP46 (Oryza sativa, UniProt Q69TW5 1-324)
T1 sequence: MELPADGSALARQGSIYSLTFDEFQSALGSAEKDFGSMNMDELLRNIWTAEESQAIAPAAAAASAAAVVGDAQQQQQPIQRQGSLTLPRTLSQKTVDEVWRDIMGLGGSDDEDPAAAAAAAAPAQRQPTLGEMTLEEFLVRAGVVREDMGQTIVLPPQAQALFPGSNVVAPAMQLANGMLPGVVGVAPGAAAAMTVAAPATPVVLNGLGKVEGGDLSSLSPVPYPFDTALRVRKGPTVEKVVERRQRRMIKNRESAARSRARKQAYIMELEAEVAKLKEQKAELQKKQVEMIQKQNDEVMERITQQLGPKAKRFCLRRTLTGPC

B1: YUC8-Probe (YUC8/REIN7 promoter, P3 G-box) (dsDNA)
DNA 1: GTTGGAAAGCGTATTTTATTCGCAACGTGCGGTTCTTCCAGTTTCTCGGC
DNA 2: GCCGAGAAACTGGAAGAACCGCACGTTGCGAATAAAATACGCTTTCCAAC
B2: YUC8-Mutant Probe (dsDNA)
DNA 1: B1 DNA 1 with C26A, G27A, T28A, G29A
DNA 2: B1 DNA 2 with C22T, A23T, C24T, G25T

Legend:
GST-OsbZIP46 [1] = biological target: T1, GST-OsbZIP46; experiment: EMSA; LightShift Chemiluminescent EMSA kit, 20 min at room temperature, 5% native polyacrylamide gel; buffer, salt and pH not stated; conditions: protein: recombinant; tags: GST (N-terminal, pGEX-6p-1); chain copies: 2
GST-OsbZIP46 [2] = biological target: T1, GST-OsbZIP46; experiment: EMSA; labeled mutant probe; LightShift Chemiluminescent EMSA kit, 20 min at room temperature, 5% native polyacrylamide gel; buffer, salt and pH not stated; conditions: protein: recombinant; tags: GST (N-terminal, pGEX-6p-1); chain copies: 2; label: 3' biotin

| Binder | binding result (GST-OsbZIP46 [1]) | binding result (GST-OsbZIP46 [2]) |
| --- | --- | --- |
| B1 | binds |  |
| B2 |  | no binding |
